Earlier results, collected in US20250186538A1, “BIVALIRUDIN COMPOUNDS” (The General Hospital Corporation, priority 2022, published 2025).

Details: in vivo

Question: For “D-Phe-Pro-Arg-Pro-Gly-Gly-Gly-Gly-Asn-Gly-Asp-Phe-Glu-Glu-Ile-Pro-Glu-Glu-Tyr-Leu [bival]”, which Half-life is on record?
Answer: about 20 min
